# Laboratory results as given in paper PMC3999930, “Characterization of a SAM-dependent fluorinase from a latent biosynthetic pathway for fluoroacetate and 4-fluorothreonine formation in Nocardia brasiliensis” (F1000Research, 2014).
# B1: NobA, SAM-dependent fluorinase (5'-fluoro-5'-deoxyadenosine synthase) from Nocardia brasiliensis ATCC 700358 (enzyme, UniProt W8JNL4 1-300, looked up)
# chain: MTTTNGRRPIIAFMSDLGITDDSVAQCKGLMLSVCPDVTIVDICHTMQPWDVEEGARYIVDLPRLFPEGTVFATTTYPATGTTARSVALRIAHASKGGARGQWAGSGAGFERKEGSYIYIAPNNGLLTTVIKEHGYLEAYEVSSPEVIPEQPEPTFYSREMVALPSAHLAAGFPLEKVGRRLADDEIVRFERKDPELVADHDLVGYVTNIDHPFGNVWTNIHRTDLEKLGVGYGTKLRITLDGVLPFELPLSPTFADAGEIGAAVAYLSSRGYLALARNAASLAYPYNLKAGISVQVKVG
# notes: NobA, fluorinase of Nocardia brasiliensis ATCC 700358 (HUJEG-1); NdeI-HindIII fragment in pET28a; no removal of the His tag is described; also called 5'-FDA synthase; source: E. coli BL21 (DE3), purified (Ni-NTA, dialysis)
# Target: the molecule itself
# Experiment: SEC; Superdex 200 GL, 50 mM phosphate buffer pH 7.8, 1 ml/min; native mass estimated from a calibration curve of standard proteins (29-669 kDa)
protein,measurement,value
B1,stoichiometry N,6
